# Test results reported in PMC9449591, “Therapeutic application of PPE2 protein of Mycobacterium tuberculosis in inhibiting tissue inflammation”.
# B1: scf core promoter 60-bp EMSA oligonucleotide (dsDNA)
# DNA 1: CGCGTGCGGGCGGGAGGGAGCTGTATAAAAAGCGCTGGCGGCGCAGCAGCCGGGGCTTCATTTGCG
# DNA 2: CGCAAATGAAGCCCCGGCTGCTGCGCCGCCAGCGCTTTTTATACAGCTCCCTCCCGCCCGCACGCG
# Molecular target: T1, rPPE2 (Mycobacterium tuberculosis, UniProt P9WI47 1-556)
# T1 sequence: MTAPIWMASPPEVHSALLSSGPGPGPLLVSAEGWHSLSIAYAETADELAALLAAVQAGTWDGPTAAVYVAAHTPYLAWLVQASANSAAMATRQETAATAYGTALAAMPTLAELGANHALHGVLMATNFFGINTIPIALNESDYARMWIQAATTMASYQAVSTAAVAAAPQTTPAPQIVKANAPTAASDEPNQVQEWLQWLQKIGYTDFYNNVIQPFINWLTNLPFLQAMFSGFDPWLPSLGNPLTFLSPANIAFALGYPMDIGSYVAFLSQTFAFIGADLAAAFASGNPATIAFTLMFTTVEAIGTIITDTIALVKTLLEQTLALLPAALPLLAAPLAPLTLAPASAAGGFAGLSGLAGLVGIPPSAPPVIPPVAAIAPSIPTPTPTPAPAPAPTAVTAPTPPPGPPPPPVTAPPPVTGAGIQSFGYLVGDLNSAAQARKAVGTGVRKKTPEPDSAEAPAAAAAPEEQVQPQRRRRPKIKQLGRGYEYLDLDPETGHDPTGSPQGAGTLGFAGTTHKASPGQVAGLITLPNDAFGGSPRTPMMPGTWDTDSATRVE
# Assay: EMSA; 20 mM HEPES, 0.5 mM DTT, 0.5 mM EDTA, 5% glycerol; […]; 30 min at room temperature; […]
# Details: protein: recombinant; tags: His (pRSET-A vector, TALON purified); label: 32P 5' end label (T4 PNK)
binder,measurement,value
B1,binding result,binds
